Where a chain is given by its changes, count along the chain named.
T1: AsCas12f1 (Acidibacillus sulfuroxidans, UniProt A0A2U3D0N8 1-422)
T1 sequence: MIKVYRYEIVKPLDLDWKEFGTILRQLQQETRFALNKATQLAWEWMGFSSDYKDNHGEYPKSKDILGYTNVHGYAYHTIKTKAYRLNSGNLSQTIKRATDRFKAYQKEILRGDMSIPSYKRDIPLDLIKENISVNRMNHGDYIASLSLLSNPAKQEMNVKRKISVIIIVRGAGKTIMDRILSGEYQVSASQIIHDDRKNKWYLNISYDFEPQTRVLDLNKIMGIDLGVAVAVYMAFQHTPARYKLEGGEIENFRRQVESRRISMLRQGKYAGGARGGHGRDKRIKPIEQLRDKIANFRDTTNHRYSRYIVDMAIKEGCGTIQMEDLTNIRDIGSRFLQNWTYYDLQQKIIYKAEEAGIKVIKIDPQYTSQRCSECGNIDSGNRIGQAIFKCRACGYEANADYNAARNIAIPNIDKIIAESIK

B1: smFRET target DNA with crRNA/tracrRNA (mixed)
DNA 1: ACGCACCAGAAACGAAGGCTACGTCCAGGAGCGCACCATCTTCTTCAAGGAATACAAACAAGCTAAGCACAACGTCGTCT
DNA 2: AGACGACGTTGTGCTTAGCTTGTTTGTATTCCTTGAAGAAGATGGTGCGCTCCTGGACGTAGCCTTCGTTTCTGGTGCGT
RNA 1: GUUUGCGAGCUAGCUUGUGGAGUGUGAACUAUUCCUUGAAGAAGAUGGU
RNA 2: GGAUUCGUCGGUUCAGCGACGAUAAGCCGAGAAGUGCCAAUAAAACUGUUAAGUGGUUUGGUAACGCUCGGUAAGGUAGCCAAAAGGCUGAAACUCCGUGCACAAAGACCGCACGGACGCUUCACAUAUAGCUCAUAAAC
B2: Protospacer 16-20mm DNA with crRNA/tracrRNA (mixed)
DNA 1: B1 DNA 1 with A35G, C36T, C37A, A38C, T39G
DNA 2: B1 DNA 2 with A42C, T43G, G44T, G45A, T46C
RNA 1: B1 RNA 1
RNA 2: B1 RNA 2

Key:
AsCas12f1 [1] = target: T1, AsCas12f1; test: smFRET; crRNA-tracrRNA; binding then cleavage, E ~0.5; Assay buffers not in the material; duplexes annealed in 20 mM Tris-HCl pH 8.0, 50 mM NaCl; smFRET with 1-10 mM Mg2+; conditions: protein: recombinant; tags: N-terminal His6-SUMO, removed by HRV3C; chain copies: 2; label: iCy3dT (+34) and 3' biotin on NTS; 3' Cy5 on crRNA; strands: TS/NTS/crRNA/tracrRNA; DNA blunt; crRNA 3' 20 nt pairs with TS
AsCas12f1 [2] = target: T1, AsCas12f1; test: smFRET; partially matched guide/target (16-20mm); low E 0.2-0.4, partial hybridization; Assay buffers not in the material; duplexes annealed in 20 mM Tris-HCl pH 8.0, 50 mM NaCl; smFRET with 1-10 mM Mg2+; conditions: protein: recombinant; tags: N-terminal His6-SUMO, removed by HRV3C; chain copies: 2; label: iCy3dT and 3' biotin on NTS; 3' Cy5 on crRNA; strands: TS/NTS/crRNA/tracrRNA; DNA blunt; guide mismatched at positions 16-20

| Binder | binding result (AsCas12f1 [1]) | binding result (AsCas12f1 [2]) |
| --- | --- | --- |
| B1 | binds |  |
| B2 |  | binds |

Reference: publication PMC11662939, “CRISPR-AsCas12f1 couples out-of-protospacer DNA unwinding with exonuclease activity in the sequential target cleavage”
